Measured values taken from the supplement of paper PMC12042874.
± gives the uncertainty stated by the source.

assay: amyloid nucleation score (Sup35N fusion, yeast selection) (log enrichment); library NNK1; higher = more nucleation; inactive = no reads after selection
Procedure, shortened: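 Output and input plasmid inserts were sequenced by Illumina after psi-negative yeast carrying Sup35N fused to peptides of 20 random codons had been induced 24 hours with 100 μM copper sulfate and grown 7 days at 30°C on medium lacking adenine and uracil. The nucleation score is the DiMSum log enrichment of output over input reads, centred on the mode score of non-aggregating sequences. Sequences with under 100 input reads were excluded.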

Substance | amyloid nucleation score
FITRRSLGCRFPKPKSLRIN | -0.012 ± 0.4
MMLSVCISKLTFLVIRDLLV | 0.459 ± 0.23
LGLDTEVVGPGPGGYHLWQK | 0.112 ± 0.27
YDIQVISPPSKM | 0.202 ± 0.31
MYSISCIVNY | 2.56 ± 0.15
SPVRIYTSRSIMRFNVRKPT | -0.306 ± 0.9
PSTREYFNCTKMAYYCIRRP | -0.005 ± 1.7
YYSVGYGTYLTEFLCGNLRG | 0.989 ± 0.35
CRPVGRRYKWFTFSGGLLLR | 1.14 ± 0.9
KNVARVHMQCLPAYVLGRNH | 0.018 ± 0.66
HPIEWSKVSDNIRRQSGCCG | 0.754 ± 0.33
NSPRPSLLCCPCGKAYLHFR | -0.282 ± 1.2
ATQSVFSKWVGGIRWWCVLL | -0.65 ± 0.88
VWCRFERDTISKLCASWGRR | -0.237 ± 1.9
FVVSDRGWTQALRHYPDTRM | -0.25 ± 0.34
ALGLRILCMRRDSRWDSPCS | 0.353 ± 0.84
IREFRRL | 0.313 ± 0.65
CHEALDLMCHADTVIFALAE | -0.216 ± 0.57
ACRGPNSHRFTGILHIFFLE | 0.705 ± 0.67
GASWNCAQYRMMD | -0.338 ± 1.7
NHMSGIDKGIMRLGEWLGEW | -1 ± 0.83
ELFASTCGFYALHRLGSRPG | 3.04 ± 0.092
SLITGIRRSGMAICLDLWAG | -1.21 ± 2.7
GTTLTDSVCYRGLNFPRLY | -0.435 ± 1.9
IGSGYW | -0.091 ± 0.52

Substance | amyloid nucleation score
NYAYCSLVVEDSVK | 8.284 ± 0.063
VFVSKNWGTCRHGRDSCC | 0.507 ± 0.26
LCLGHRH | -0.818 ± 1.6
SIYRSVIIVMDTKVMRDVLF | 4.97 ± 0.067
VVRWSFDNAYSSSLDNLIVI | -0.209 ± 0.34
RALALEPNSI | inactive
GPVSGHRPIVRD | -0.179 ± 1.1
HGINET | 0.357 ± 0.48
QPALPSGPVDQS | 0.42 ± 0.35
QMYVVMLVGVLFCWGTPYRL | 0.301 ± 0.39
SKLKAYICLCRMEIVLIPRF | -0.978 ± 1.7
VTRFRYECRSGHRKHPGGMD | inactive
RGWGELVVVNHLLRRGGGEG | -0.029 ± 0.69
GSRCRRLWDM | -0.02 ± 0.55
LKLLINGY | -0.333 ± 0.59
PNNKE | 0.638 ± 0.33
TMVVNLARRAPPVLPSGRMT | 0.71 ± 0.74
TFSRRASDFEVNV | -1.25 ± 2.7
VKKRGDQLSLCWCLPRDLLL | 0.612 ± 0.59
ALSSWLCGSG | 0.746 ± 0.9
AVMCYDNTSSNVSFN | -0.279 ± 0.28
NCGSVFFYGPIVGFHRLGLV | 0.967 ± 0.44
GQDAPEDAMSVRRILVSGLA | -0.109 ± 1.5
SGAYLNKGFSVLAFYIIIVK | 1.81 ± 0.26
LITLAFVVSCVSYSRGSKRR | 1.26 ± 0.17

Substance | amyloid nucleation score
TSVSARFFFCRKISRMHRSS | -0.885 ± 1.1
TSINGYSVAKSGGSMYCIGM | -0.194 ± 0.67
DLYGACEMWCAENSYGRFSV | 0.107 ± 0.95
VGLMAVLRVGRKGLPLKNME | -0.082 ± 0.31
GHLNQCGLNL | -0.136 ± 0.38
RSNFELSLSALKVMLFVGHK | inactive
AIGSCWTGLRNGT | 0.734 ± 1.1
TGCCFYVSDHF | 7.88 ± 0.071
CLSGGFMPTYKVIWRQGCYG | inactive
SQIDYNDSCWNLGNP | 0.164 ± 0.39
IWGDKIHGFHGVIMMQSGMV | -0.762 ± 0.71
GKRDRMLQQIGWKLTYRCWN | 0.522 ± 0.66
QNKSWAG | -0.509 ± 1.7
SMVVV | inactive
YILSFFCVVEARDFFVDFEM | 5 ± 0.062
SCEGGCAGSCGVP | -0.641 ± 1.5
GRSCKFCYVTWVVPEP | 1.25 ± 0.2
ISYRNLIRFCFSPYAKLWRF | 0.69 ± 0.52
VCMWRFLVGRT | -0.238 ± 0.9
CVHLSKRCKLPVKIISLCLN | 0.767 ± 1
GICLKMYYVSACWESNVDTI | 1.88 ± 0.18
MLCVGKA | -1.16 ± 0.64
ILPEPGMLFDIILNLHAKKF | 2.65 ± 0.11
MNKLYITA | 0.035 ± 0.84
GFDKMMCWYYGLTVIVMDGS | -0.076 ± 0.25

Substance | amyloid nucleation score
FRGEVYELEIKGKILSSVFV | 0.121 ± 0.24
ISSLTV | -1.33 ± 0.68
HVGIDIAVTWLQVKRVAMAS | 0.037 ± 0.31
FRFLKEASKCKPVTVMSPSW | 0.123 ± 0.7
FETDNIDPHGYSFEYDASPA | -0.25 ± 0.43
FQFESHW | 1.85 ± 0.24
GYFVYYFLFIYCVFRVFSTL | 4.82 ± 0.12
KVSENLPRMPANLLTI | 0.09 ± 0.44
HRYYSYSWGLWLSTTWEYFS | inactive
SFVYS | -0.157 ± 0.4
MALFSCCCKVYKMG | 4.59 ± 0.1
NVGLGRWSFCGSMSVK | -0.688 ± 0.58
VRKSSVASLECQNA | 0.335 ± 0.28
SRGSVCIAMHLAC | 0.001 ± 0.37
FMSAV | 0.374 ± 1.2
YGFLVKS | 0.1 ± 0.9
RLISTGADCEVRISHIRSRN | 0.594 ± 0.48
SNFTEVLLSECFLVWLMFTH | 0.089 ± 0.87
SDYGLGMSDWGDFMDRVGLR | 0.527 ± 1.2
NSVIFELISSCVNDSNVAGD | 1.45 ± 0.63
FAELRFFCCDS | 2.45 ± 0.21
VFGKITSWWFRTIDFWERRI | -0.428 ± 0.64
SEWIKLRVRLDLSLVAFKII | 0.686 ± 0.39
GSGYFDGVIFIYLT | -1.11 ± 1.1
LMGMRPFELHRRRGHGHVLG | -0.019 ± 0.64

Substance | amyloid nucleation score
KQRIFEMLPWGPRPLYPVWG | 0.405 ± 0.43
RGYAVNAGYSVCMYWLGTLL | 0.695 ± 0.53
SLFLMIVVYHVHVRALYILV | 0.531 ± 0.93
GCDCDQVLKYHARCMYVKDE | inactive
SPPLSASS | -0.476 ± 1.9
SNLECV | -0.019 ± 0.51
LFTVKKVFQLLYL | 0.936 ± 0.7
YIKMIR | -0.759 ± 0.97
FIRSRMVWLCLMLISTIERG | 0.835 ± 0.39
SRYKTPSVDGVFCSALRGSG | 0.301 ± 0.61
DKEYWSVSSVRYTTENGWI | 1.07 ± 0.47
LFRLYTEITGRMRVTKVKVV | 0.641 ± 0.69
RSFSCLSQVFTYVPLTVRET | 0.22 ± 0.6
ITEVLKNVKKWFCFIRISVG | 0.113 ± 0.5
MKFGGLSG | -0.171 ± 0.47
FDRWFRQGNGLVV | 0.225 ± 0.78
FSTFVGHYLSKMKWITVVNS | 0.531 ± 0.36
YILWNHNGLNGWGFAGITLF | -0.994 ± 0.51
NLVVTTWARDIADYISAS | -0.01 ± 0.4
ILKATHGSHDIYPAWNGRIS | 3.2 ± 0.12
IYWRILEL | -0.034 ± 0.85
FGSFVFPCYAQPELIPFNLY | 0.119 ± 0.72
NRLNGNLPLNHR | 0.014 ± 0.51
EPYLISEFRRT | -0.364 ± 0.47
ICSVRSTQVGEKTSLPWLCR | 0.371 ± 0.41

Substance | amyloid nucleation score
NEFEVCG | 0.108 ± 0.25
MNKWSG | 1.4 ± 0.63
NLKIQCSS | 0.004 ± 0.39
KGHRCNIVTTNTAPRFPW | -0.482 ± 0.91
VVSTPHSN | -0.099 ± 0.85
SDVVFYFGDAGFRMLSEDSR | -0.326 ± 0.55
LFKNFEWMYSTMTHLSWIWL | -0.335 ± 0.21
FFWSYAYIVIRLVSTKCWY | 0.011 ± 0.28
NGCQSIMR | 0.165 ± 0.62
FSIAASASTLFDGFVIWRF | 0.027 ± 0.5
IYFVIDCN | 0.835 ± 0.56
PDRRQSN | inactive
GKSILVVSFARKLF | -0.18 ± 1.2
VNWIVVVFTNMLFLTKGRNA | 0.308 ± 0.27
RLGRGKMKGWLSMLCRDCAL | -0.918 ± 0.65
VTFLIMGWLRDRRV | -0.563 ± 0.39
VLDEYFCNLC | 5.989 ± 0.058
FPMRSWCLEACRHCRQPTFS | -0.301 ± 1.4
IISRRCKML | 1.37 ± 0.5
SMTKSIGMRSYGMVAHGAGS | 0.722 ± 0.45
SNCRDKRFMY | 0.637 ± 0.79
NGLQMDCWPLCWRGGGARNC | 0.582 ± 0.38
SSRLLCYRSVGAFISVGNEV | 0.675 ± 0.19
MVSPPLNTSIYLIPCSSLCD | -0.407 ± 0.25
YNSETSPVCYELTCESFCIV | -1.23 ± 2.4

Substance | amyloid nucleation score
DQNVAPYVSKHGVQTILKRD | -1.51 ± 1.9
IGGPYLVGSHKLKLWPWLES | -0.575 ± 0.34
SLIISKEGRYVFYVCLRGWW | -0.447 ± 0.42
QGLLPDIYVALSLCGVPGTD | -0.262 ± 0.59
DVAYRGSGYGFSYFYFGMFS | 0.547 ± 0.5
NRISALWSTMLWFAY | -0.008 ± 0.27
VGDYFFGDDSIGGSRMHVSY | 1.15 ± 0.65
FDDFHESARTGFNGKERSQM | 1.01 ± 0.19
FDGCNTKGNMSFAWSRPLGM | 0.246 ± 0.97
RLVRCMGTVIINQSHSCDRG | 0.607 ± 0.64
TDSSKGRGARRGGSNSSHSW | -0.419 ± 0.61
GGFFYMWRYRLCRLGKFGAP | -0.76 ± 0.6
DAGRWSYPGRCPNMWLRLLM | -0.461 ± 0.68
RSQSCLVYYWTRFRPVYRFA | 0.671 ± 0.29
FGLVREVFKM | 0.171 ± 0.59
TTPFLHKENLNSIMK | 0.396 ± 0.26
VNCGSYVDLDVGVIGPR | 0.255 ± 0.84
VLAPFVLPC | -0.406 ± 0.41
NEDAPFMVTSKVVSGT | 0.176 ± 0.34
SCRSRTYERCLSLVNMEREG | 3.27 ± 0.13
PARSWNLLLSSYYAVFGCFY | -0.327 ± 0.74
EYFLSQYRKFTGYFVVITAT | 1.47 ± 0.76
TSSPKRFLIMKVNCIIILDL | -0.721 ± 0.68
MVAMVNT | -0.087 ± 0.28
